Results on three compounds are retold here after patent US20070185028A1, “Compositions and methods for treatment of protein misfolding and protein aggregation diseases” (priority 2004, published 2007).

Values joined by “and” are separate entries in the source; they are usually repeats but may differ in a detail not shown here. Identical values can stand only once.

Holding throughout (type): biochemical
For data set [1], the target named is T1, Aβ1-42 (Homo sapiens, UniProt P05067).
T1 construct: Aβ1-42 (American Peptide); purchased American Peptide
Kind of data set: Aβ1-42 fibril formation ThT fluorescence assay. Particulars: for decrease in ThT fluorescence of Aβ1-42: 6 μM inhibitor, 30 μM Aβ1-42, 37° C., 48 hrs; for inhibition of Aβ fibrillation: peptide to substrate concentration of 1:5. The procedure: The effect of five synthesized αB crystallin peptides STSLSPFYLRPPSFLRAP (ST), DRFSVNLDVKHFS (DR), HGKHEERQDE (HG), LTITSSLSSDGV (LT), and ERTIPITRE (ER) on Aβ1-42 fibrillation was measured using the ThT fluorescence assay (FIG. 1). The formation and inhibition of Aβ1-42 fibrils was qualitatively verified by fluorescence and bright-field microscopy. The concentration and stoichometry of the peptides was varied relative to Aβ1-42 to establish a concentration curve. In addition, the effect of two known inhibitors of Aβ1-42 fibrillation (APS and NAP) and a control neuropeptide (AT1) with no fibril inhibition activity was measured and compared to the effect of the αB crystallin peptides on Aβ1-42 fibrillation. The ThT fluorescence of 30 μM Aβ1-42 alone incubated at 37° C. for 48 hrs increased from ˜350,000 to ˜450,000 RFU. […] In contrast, 6 μM DR, LT, and […] had no effect on Aβ1-42 fibril formation. […] Increasing the concentration of the DR peptide to 30 μM decreased the ThT fluorescence by approximately 50%. […] However, when the concentrations of the LT and ER peptides were increased to 150 μM, a 60-100% decrease in ThT fluorescence was measured. […] The negative control peptide AT1 had no effect on Aβ1-42 fibril formation even at a concentration as high as 300 μM.
The Thioflavin T (ThT) fluorescence of Aβ1-42 in the presence of varying concentrations of αB crystallin peptides and controls was measured. […] Addition of 6 μM DR, LT, and ER had no effect on the ThT fluorescence of Aβ1-42. When the concentration of the peptides was increased to 30 μM (1:1::peptide:Aβ1-42), the αB crystallin peptides ST, DR, HG decreased the ThT fluorescence by 50-100%. At the same concentrations, APS and NAP decreased the ThT fluorescence by 30-100%. When the concentration of the peptides was increased further to 150 μM ([…]), four of the five αB crystallin peptides DR, HG, LT, and ER decreased the ThT fluorescence by 58-100%. At the same concentrations, APS and NAP decreased the fluorescence by 28-100%. […] The formation and inhibition of Aβ fibrils was verified microscopically.
Thioflavin T (ThT) Assays. The effect of the five αB crystallin peptides (ST, DR, HG, LT, and ER) on Aβ1-42 fibril formation was measured using the ThT fluorescence assay (44-47) and compared with two known inhibitors of Aβ1-42 fibril formation (Tramiprosate and NAP)(34, 36) and a negative control neuropeptide Angiotensin 1 (AT1). Thioflavin T is a fluorescent dye that has a high affinity for amyloid fibrils and becomes fluorescent (excitation λ=450 nm, emission λ=486 nm) when bound to fibrils. For the Aβ1-42 assays, peptides and APS were dissolved to 2 mM in 0.25% DMSO and diluted accordingly, while Aβ1-42 was dissolved in 20 mM Tris-Cl, pH 7.40, and 100 mM NaCl. For the 5:1::inhibitor:Aβ1-42 assay, 10 μL of 450 μM peptide or APS was mixed with 10 μL of 90 μM Aβ1-42), 7 μL 20 mM Tris-Cl, 100 mM NaCl, pH 7.4 and 3 μL of 1 mM ThT. For the 1:1::inhibitor:Aβ1-42 assay, 10 μL of 90 μM peptide or APS was mixed with 10 μL of 90 μM Aβ(1-42), 7 μL 20 mM Tris-Cl, 100 mM NaCl, pH 7.4 and 3 μL of 1 mM ThT. For the 1:5::inhibitor:Aβ1-42 assay, 10 μL of 18 μM peptide or APS was mixed with 10 μL of 90 μM Aβ(1-42), 7 μL 20 mM Tris-Cl, 100 mM NaCl, pH 7.4 and 3 μL of 1 mM ThT. ThT fluorescence in relative fluorescence units (RFU) was measured using a Perkin Elmer Victor^3 V plate reader. Assays were performed in 384-well fluorescence plates in duplicates or triplicates. Samples were incubated at 37° C. for a total of 48 hours. ThT fluorescence was measured at 0, 24, and 48 hours. The effect of the peptides and APS was calculated as percentage fibril formation relative to Aβ1-42 alone (100%) at the end of 48 hours.

Data set [2] has as its target T2, transthyretin (TTR) (Homo sapiens, UniProt P02766).
T2 construct: purchased Sigma-Aldrich
Kind of data set: Transthyretin fibrillation ThT assay. Particulars: 3.2 μM; 16 μM TTR; 37° C. How it is done: The effect of the five αB crystallin peptides ST, DR, HG, LT, and ER on TTR fibrillation was measured using the ThT fluorescence assay (FIG. 26). The formation and inhibition of TTR fibrils was qualitatively verified by fluorescence and bright-field microscopy. The concentration of the peptides was varied relative to TTR to establish a concentration curve. In addition, the effect of a control neuropeptide (AT1) with no TTR fibril inhibition activity was measured and compared to the effect of the αB crystallin peptides on TTR fibril formation. The ThT fluorescence of 16 μM TTR alone incubated at 37° C. for 4 hrs, increased from ˜15,000 to ˜45,000 RFU. Addition of 3.2 μM αB crystallin peptides, ST, DR, LT, and HG decreased the ThT fluorescence of TTR by 15-70%. In contrast, 3.2 μM ER had no effect on TTR fibril formation. Increasing the concentration of the ER peptide to 16 μM decreased the ThT fluorescence of TTR by 60%. The negative control peptide AT1 had no effect on TTR fibrillation even at a concentration as high as 160 μM. All five αB crystallin peptides inhibited TTR fibrillation at sub-stoichometric and stoichometric concentrations (3.2 μM and 16 μM).
The Thioflavin T (ThT) fluorescence of TTR in the presence of varying concentrations of αB crystallin peptides and controls was measured. […] When the concentration of the peptides was increased to 16 μM (1:1::peptide:TTR), the αB crystallin peptides ST, DR, HG, LT and ER decreased the ThT fluorescence by 8-72%. When the concentration of the peptides was increased further to 80 μM ([…]), all of the five αB crystallin peptides ST, DR, HG, LT, and ER decreased the ThT fluorescence by 40-70%. […] The formation and inhibition of TTR fibrils was verified microscopically.
Transthyretin fibrillation ThT assays were performed as described previously. Hurshman et al., Biochemistry 43:7365-81, 2004; O'Nuallain and Wetzel, Proc Natl Acad Sci USA 99:1485-90, 2002. Peptides were dissolved to 2 mM in 0.25% DMSO and diluted accordingly, while TTR was dissolved in 200 mM KCl, 2 mM EDTA, 5 mM PBS, 200 mM sodium acetate, pH 4.4. For the 5::peptide:TTR assay, 10 μL of 160 μM peptide was mixed with 10 μL of 32 μM TTR, and 1 μL of 1 mM ThT. For the 1:1::peptide:TTR assay, 10 μL of 32 μM peptide was mixed with 10 μL of 32 μM TTR and 1 μL of 1 mM ThT. For the 1:5::peptide:TTR assay, 10 μL of 6.4 μM peptide was mixed with 10 μL of 32 μM TTR and 1 μL of 1 mM ThT. ThT fluorescence was measured using a Perkin Elmer Victor^3 V plate reader. Assays were performed in 384-well fluorescence plates in duplicates or triplicates. Samples were incubated at 37° C. ThT fluorescence was measured continuously for 150 minutes. The effect of the peptides and APS was calculated as percentage fibril formation relative to TTR alone (100%) at the end of 150 minutes.

In data set [3] the target is Aβ (Homo sapiens, UniProt P05067). The data set is described as follows: Aβ Thioflavin T fluorescence (fibrillization, 50° C., 72 hours). The following applies: Thioflavin T; 1:10 Aβ:peptide; 50° C., 72 hours. How it is done: Aβ Thioflaviin T fluorescence. Aβ fibrils were grown in the presence and absence of αB crystallin and peptides in conditions similar to that previously described for the presence of αB crystallin. Bakthisaran et al., Biochem J, 2005. Peptides were dissolved to 9.1 mM in trifluorethanol (TFE) and diluted to 0.91 mM stock solutions in 50 mM PBS, 100 mM NaCl, pH 7.4. 3.5 mg of Thioflavin T was dissolved in 100 μl of 50 mM Glycine pH 8.5. A stock solution of 1 mg/ml (0.22 mM) Aβ was prepared. 20 μl Aβ, 50 μl chaperone, 2 μl Thioflavin T was mixed with 28 μl 50 mM PBS, 100 mM NaCl, pH 7.4. Fluorescence was read using a Beckman Coultier DTX 880 multimode detector. Samples were heated at 50° C. for 72 hours and fluorescence was read again.
The fibrillization of Aβ was measured as fluorescence of the fluorescent dye Thioflavin T from solutions containing 1:10 monomeric molar ratio of Aβ:peptide. In the absence of Aβ fibrils, Thioflavin T had little or no fluorescence. The fluorescence of the Thioflavin T bound to Aβ fibrils in the absence of any other molecule after 72 hrs was set to 100%. […] Fibril formation=ΔfluorescenceAβ (with chaperone)*100/ΔfluorescenceAβ (without chaperone).

In data set [4] the target is T3, γD crystallin (Homo sapiens, UniProt P07320).
T3 sequence (P07320 2-174): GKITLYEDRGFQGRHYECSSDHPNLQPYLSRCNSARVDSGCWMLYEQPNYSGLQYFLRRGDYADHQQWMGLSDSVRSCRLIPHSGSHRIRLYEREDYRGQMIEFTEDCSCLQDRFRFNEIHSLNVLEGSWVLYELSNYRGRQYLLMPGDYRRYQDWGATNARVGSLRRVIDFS
Kind of data set: γD crystallin Thioflavin T fluorescence (fibrillization). Particulars: 1:1 γD crystallin:peptide. How it is done:
γD crystallin Thioflaviin T fluorescence. γD crystallin fibrils were formed in a similar way to that of γ crystalline. Meehan et al., J Biol Chem 279: 3413-3419, 2004. Peptides were dissolved to 9.1 mM in TFE and diluted to 0.91 mM stock solutions in 10% TFE, pH 2.0. 3.5 mg of Thioflavin T was dissolved in 100 μl of 50 mM Glycine pH 8.5. A stock solution of 1 mg/ml (0.22 mM) Aβ was prepared. 20 μl Aβ, 5 μl chaperone, 2 μl Thioflavin T was mixed with 73 μl 10% TFE, pH 2.0. Fluorescence was read using a Beckman Coultier DTX 880 multimode detector. Samples were heated at 50° C. for 72 hours and fluorescence was read again.
The fibrillization of γD crystallin was measured as fluorescence of the fluorescent dye Thioflavin T from solutions containing 1:1 monomeric molar ratio of γD crystallin:peptide. In the absence of fibrils Thioflavin T had little or no fluorescence. The fluorescence of the Thioflavin T bound to γD crystallin fibrils in the absence of any other molecule after 72 hrs was set to 100%. […] Fibril formation=ΔfluorescenceγD crystallin (with chaperone)*100/ΔfluorescenceγD crystallin (without chaperone).

Take `NCCCS(=O)(=O)O` [APS, 3-aminopropanesulfonic acid, reference compound]: in data set [1], the “decrease in ThT fluorescence of Aβ1-42” value is ~40% and 38%; the “inhibition of Aβ fibrillation” value is recorded as approximately 38%. The “decrease in ThT fluorescence of TTR” value in data set [2] is reported as “did not have any effect”.

For NAPVSIPQ [reference compound], in data set [1], the “decrease in ThT fluorescence of Aβ1-42” value was ~40% and 38%; the “inhibition of Aβ fibrillation” value is reported as approximately 38%. Further, the “decrease in ThT fluorescence of TTR” value in data set [2] is listed as “did not have any effect”.

Turning to “αB crystallin: wild type recombinant human αB crystallin, small heat shock protein and molecular chaperone”, the “Δfluorescence (Aβ)” value in data set [3] is recorded as 318,471,040. Further, in data set [4] (72 hrs), the “effect on the fibrillization of γD crystallin (ranking)” value was “weakest effect”. In addition, the “Δfluorescence (γD crystallin)” value in data set [4] (Thioflavin T, 50° C., 72 hours) is 1,079,141,056.
